From US20240117334A1 (VERTEX PHARMACEUTICALS, published 2024)
Values joined by “and” are separate entries in the source; they are usually repeats but may differ in a detail not shown here. Equal values may be shown once.

T1: Plasma antichymotrypsin (ACT) (UniProt P01011 24-423)
T1 construct: also called plasma ACT
T1 sequence (looked up): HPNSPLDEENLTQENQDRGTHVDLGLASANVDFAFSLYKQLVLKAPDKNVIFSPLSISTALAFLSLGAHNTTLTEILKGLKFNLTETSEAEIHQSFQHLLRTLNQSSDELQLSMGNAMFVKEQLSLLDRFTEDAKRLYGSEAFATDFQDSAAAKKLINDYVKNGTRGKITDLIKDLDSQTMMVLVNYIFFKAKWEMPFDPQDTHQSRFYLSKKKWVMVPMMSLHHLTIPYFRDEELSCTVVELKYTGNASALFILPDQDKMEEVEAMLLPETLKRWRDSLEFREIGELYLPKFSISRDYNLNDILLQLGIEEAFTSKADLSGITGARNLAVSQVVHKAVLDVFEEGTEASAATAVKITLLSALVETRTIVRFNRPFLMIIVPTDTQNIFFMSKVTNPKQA


Tests used:
Human Factor B = Human Factor B (human, UniProt P00751 26-764); experiment: cell-based or functional assay
[1] = biological target: T1, Plasma antichymotrypsin (ACT); experiment: serpin inhibition of the protease

Chain of Human Factor B (P00751 26-764 limits assumed): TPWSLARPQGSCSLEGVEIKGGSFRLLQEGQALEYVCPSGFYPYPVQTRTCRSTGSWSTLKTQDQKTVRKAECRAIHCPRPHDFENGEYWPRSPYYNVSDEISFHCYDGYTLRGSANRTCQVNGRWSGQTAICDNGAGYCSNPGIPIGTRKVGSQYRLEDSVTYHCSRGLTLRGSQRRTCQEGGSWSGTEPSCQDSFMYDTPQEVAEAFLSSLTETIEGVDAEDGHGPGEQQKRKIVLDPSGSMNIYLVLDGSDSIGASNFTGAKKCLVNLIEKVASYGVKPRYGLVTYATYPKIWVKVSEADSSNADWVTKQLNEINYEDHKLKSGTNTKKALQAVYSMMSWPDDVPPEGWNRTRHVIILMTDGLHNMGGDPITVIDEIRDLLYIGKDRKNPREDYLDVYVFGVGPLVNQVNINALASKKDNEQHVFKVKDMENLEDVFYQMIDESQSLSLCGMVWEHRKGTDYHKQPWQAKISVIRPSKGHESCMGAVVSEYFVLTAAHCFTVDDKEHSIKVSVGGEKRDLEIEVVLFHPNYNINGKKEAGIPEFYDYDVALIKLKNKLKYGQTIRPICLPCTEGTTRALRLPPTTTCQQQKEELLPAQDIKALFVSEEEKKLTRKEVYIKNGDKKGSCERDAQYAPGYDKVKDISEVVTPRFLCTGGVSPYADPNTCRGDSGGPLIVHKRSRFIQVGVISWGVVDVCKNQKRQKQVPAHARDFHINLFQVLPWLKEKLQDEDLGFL

Row | Binder | kapp [1] | fB Cleavage EC50 (Human Factor B) | also measured
1 | chymase C22S/K40L/F41K/L99N/F173Y/S218L/A226R (enzyme) IIGGTESKPHSRPYMAYLEIVTSNGPSLKCGGFLIRRNFVLTAAHCAGRSITVTLGAHNITEEEDTWQKLEVIKQFRHPKYNTSTNHHDIMLLKLKEKASLTLAVGTLPFPSQFNFVPPGRMCRVAGWGRTGVLKPGSDTLQEVKLRLMDPQACSHYRDFDHNLQLCVGNPRKTKSAFKGDSGGPLLCAGVAQGIVSYGRLDAKPPRVFTRISHYRPWINQILQAN | 197 M⁻¹ s⁻¹ |  | fB Cleavage, 80% plasma EC50 (Human Factor B): 14 µM
2 | chymase C22S/F41R/L99Y/G151T/F173K/R217S/A226R (enzyme) IIGGTESKPHSRPYMAYLEIVTSNGPSKRCGGFLIRRNFVLTAAHCAGRSITVTLGAHNITEEEDTWQKLEVIKQFRHPKYNTSTYHHDIMLLKLKEKASLTLAVGTLPFPSQFNFVPPGRMCRVAGWGRTGVLKPTSDTLQEVKLRLMDPQACSHKRDFDHNLQLCVGNPRKTKSAFKGDSGGPLLCAGVAQGIVSYGSSDAKPPRVFTRISHYRPWINQILQAN |  | 3.45 µM | 
3 | chymase C22S/L99H/F173Y/K192R/S218L/A226R (enzyme) IIGGTESKPHSRPYMAYLEIVTSNGPSKFCGGFLIRRNFVLTAAHCAGRSITVTLGAHNITEEEDTWQKLEVIKQFRHPKYNTSTHHHDIMLLKLKEKASLTLAVGTLPFPSQFNFVPPGRMCRVAGWGRTGVLKPGSDTLQEVKLRLMDPQACSHYRDFDHNLQLCVGNPRKTKSAFRGDSGGPLLCAGVAQGIVSYGRLDAKPPRVFTRISHYRPWINQILQAN |  | 1.15 µM | 
4 | chymase C22S/F41R/L99H/G151T/F173Y/Y215K/R217M/A226R (enzyme) IIGGTESKPHSRPYMAYLEIVTSNGPSKRCGGFLIRRNFVLTAAHCAGRSITVTLGAHNITEEEDTWQKLEVIKQFRHPKYNTSTHHHDIMLLKLKEKASLTLAVGTLPFPSQFNFVPPGRMCRVAGWGRTGVLKPTSDTLQEVKLRLMDPQACSHYRDFDHNLQLCVGNPRKTKSAFKGDSGGPLLCAGVAQGIVSKGMSDAKPPRVFTRISHYRPWINQILQAN |  | 1.69 µM | 
5 | chymase C22S/L99Y/F173Y/K192R/S218L/A226R (enzyme) IIGGTESKPHSRPYMAYLEIVTSNGPSKFCGGFLIRRNFVLTAAHCAGRSITVTLGAHNITEEEDTWQKLEVIKQFRHPKYNTSTYHHDIMLLKLKEKASLTLAVGTLPFPSQFNFVPPGRMCRVAGWGRTGVLKPGSDTLQEVKLRLMDPQACSHYRDFDHNLQLCVGNPRKTKSAFRGDSGGPLLCAGVAQGIVSYGRLDAKPPRVFTRISHYRPWINQILQAN |  | 1.02 µM | 
6 | chymase C22S/F41V/L99H/G151R/F173L/Y215R/R217T/A226R (enzyme) IIGGTESKPHSRPYMAYLEIVTSNGPSKVCGGFLIRRNFVLTAAHCAGRSITVTLGAHNITEEEDTWQKLEVIKQFRHPKYNTSTHHHDIMLLKLKEKASLTLAVGTLPFPSQFNFVPPGRMCRVAGWGRTGVLKPRSDTLQEVKLRLMDPQACSHLRDFDHNLQLCVGNPRKTKSAFKGDSGGPLLCAGVAQGIVSRGTSDAKPPRVFTRISHYRPWINQILQAN |  | 8.06 µM | 
7 | chymase C22S/F41R/L99G/G151T/F173Y/Y215R/R217M/A226R (enzyme) IIGGTESKPHSRPYMAYLEIVTSNGPSKRCGGFLIRRNFVLTAAHCAGRSITVTLGAHNITEEEDTWQKLEVIKQFRHPKYNTSTGHHDIMLLKLKEKASLTLAVGTLPFPSQFNFVPPGRMCRVAGWGRTGVLKPTSDTLQEVKLRLMDPQACSHYRDFDHNLQLCVGNPRKTKSAFKGDSGGPLLCAGVAQGIVSRGMSDAKPPRVFTRISHYRPWINQILQAN |  | 4.33 µM | 
8 | chymase F41V/L99H/G151V/F173Y/Y215K/R217G/A226R (enzyme) IIGGTECKPHSRPYMAYLEIVTSNGPSKVCGGFLIRRNFVLTAAHCAGRSITVTLGAHNITEEEDTWQKLEVIKQFRHPKYNTSTHHHDIMLLKLKEKASLTLAVGTLPFPSQFNFVPPGRMCRVAGWGRTGVLKPVSDTLQEVKLRLMDPQACSHYRDFDHNLQLCVGNPRKTKSAFKGDSGGPLLCAGVAQGIVSKGGSDAKPPRVFTRISHYRPWINQILQAN |  | 7.77 µM | 
9 | chymase C22S/F41V/L99W/G151L/F173K/R217S/A226R (enzyme) IIGGTESKPHSRPYMAYLEIVTSNGPSKVCGGFLIRRNFVLTAAHCAGRSITVTLGAHNITEEEDTWQKLEVIKQFRHPKYNTSTWHHDIMLLKLKEKASLTLAVGTLPFPSQFNFVPPGRMCRVAGWGRTGVLKPLSDTLQEVKLRLMDPQACSHKRDFDHNLQLCVGNPRKTKSAFKGDSGGPLLCAGVAQGIVSYGSSDAKPPRVFTRISHYRPWINQILQAN |  | 1.94 µM | 
10 | chymase C22S/L99H/F173L/K192R/Y215H/R217T/S218V/A226R (enzyme) IIGGTESKPHSRPYMAYLEIVTSNGPSKFCGGFLIRRNFVLTAAHCAGRSITVTLGAHNITEEEDTWQKLEVIKQFRHPKYNTSTHHHDIMLLKLKEKASLTLAVGTLPFPSQFNFVPPGRMCRVAGWGRTGVLKPGSDTLQEVKLRLMDPQACSHLRDFDHNLQLCVGNPRKTKSAFRGDSGGPLLCAGVAQGIVSHGTVDAKPPRVFTRISHYRPWINQILQAN |  | 7.77 µM and 2.74 µM | 
11 | chymase C22S/K192R/A226R (enzyme) IIGGTESKPHSRPYMAYLEIVTSNGPSKFCGGFLIRRNFVLTAAHCAGRSITVTLGAHNITEEEDTWQKLEVIKQFRHPKYNTSTLHHDIMLLKLKEKASLTLAVGTLPFPSQFNFVPPGRMCRVAGWGRTGVLKPGSDTLQEVKLRLMDPQACSHFRDFDHNLQLCVGNPRKTKSAFRGDSGGPLLCAGVAQGIVSYGRSDAKPPRVFTRISHYRPWINQILQAN |  | 6.37 µM | 
12 | chymase C22S/L99H/F173I/K192R/Y215K/R217T/S218I/A226R (enzyme) IIGGTESKPHSRPYMAYLEIVTSNGPSKFCGGFLIRRNFVLTAAHCAGRSITVTLGAHNITEEEDTWQKLEVIKQFRHPKYNTSTHHHDIMLLKLKEKASLTLAVGTLPFPSQFNFVPPGRMCRVAGWGRTGVLKPGSDTLQEVKLRLMDPQACSHIRDFDHNLQLCVGNPRKTKSAFRGDSGGPLLCAGVAQGIVSKGTIDAKPPRVFTRISHYRPWINQILQAN |  | 5.62 µM | 
13 | chymase C22S/F41I/L99W/G151L/F173K/R217S/A226R (enzyme) IIGGTESKPHSRPYMAYLEIVTSNGPSKICGGFLIRRNFVLTAAHCAGRSITVTLGAHNITEEEDTWQKLEVIKQFRHPKYNTSTWHHDIMLLKLKEKASLTLAVGTLPFPSQFNFVPPGRMCRVAGWGRTGVLKPLSDTLQEVKLRLMDPQACSHKRDFDHNLQLCVGNPRKTKSAFKGDSGGPLLCAGVAQGIVSYGSSDAKPPRVFTRISHYRPWINQILQAN |  | 1.74 µM | 
14 | chymase C22S/F41V/L99F/G151R/F173K/R217S/A226R (enzyme) IIGGTESKPHSRPYMAYLEIVTSNGPSKVCGGFLIRRNFVLTAAHCAGRSITVTLGAHNITEEEDTWQKLEVIKQFRHPKYNTSTFHHDIMLLKLKEKASLTLAVGTLPFPSQFNFVPPGRMCRVAGWGRTGVLKPRSDTLQEVKLRLMDPQACSHKRDFDHNLQLCVGNPRKTKSAFKGDSGGPLLCAGVAQGIVSYGSSDAKPPRVFTRISHYRPWINQILQAN |  | 3.65 µM | 
15 | chymase C22S/F173Y/D175N/A226R (enzyme, also called MS No. 18) IIGGTESKPHSRPYMAYLEIVTSNGPSKFCGGFLIRRNFVLTAAHCAGRSITVTLGAHNITEEEDTWQKLEVIKQFRHPKYNTSTLHHDIMLLKLKEKASLTLAVGTLPFPSQFNFVPPGRMCRVAGWGRTGVLKPGSDTLQEVKLRLMDPQACSHYRNFDHNLQLCVGNPRKTKSAFKGDSGGPLLCAGVAQGIVSYGRSDAKPPRVFTRISHYRPWINQILQAN | 428 M⁻¹ s⁻¹ |  | fB Cleavage, 64% A2M-depl plasma EC50 (Human Factor B): 1650 nM; fB Cleavage, 80% plasma EC50 (Human Factor B): 11.2 µM
16 | chymase C22S/A226R (enzyme) IIGGTESKPHSRPYMAYLEIVTSNGPSKFCGGFLIRRNFVLTAAHCAGRSITVTLGAHNITEEEDTWQKLEVIKQFRHPKYNTSTLHHDIMLLKLKEKASLTLAVGTLPFPSQFNFVPPGRMCRVAGWGRTGVLKPGSDTLQEVKLRLMDPQACSHFRDFDHNLQLCVGNPRKTKSAFKGDSGGPLLCAGVAQGIVSYGRSDAKPPRVFTRISHYRPWINQILQAN | 1040 M⁻¹ s⁻¹ | 5.21 µM | 
17 | chymase C22S/A190S/A226R (enzyme) IIGGTESKPHSRPYMAYLEIVTSNGPSKFCGGFLIRRNFVLTAAHCAGRSITVTLGAHNITEEEDTWQKLEVIKQFRHPKYNTSTLHHDIMLLKLKEKASLTLAVGTLPFPSQFNFVPPGRMCRVAGWGRTGVLKPGSDTLQEVKLRLMDPQACSHFRDFDHNLQLCVGNPRKTKSSFKGDSGGPLLCAGVAQGIVSYGRSDAKPPRVFTRISHYRPWINQILQAN | 1600 M⁻¹ s⁻¹ | 0.407 µM | 
18 | chymase C22S/P38Q/V138I/V183I/L199V/A226R/F228V (enzyme) IIGGTESKPHSRPYMAYLEIVTSNGQSKFCGGFLIRRNFVLTAAHCAGRSITVTLGAHNITEEEDTWQKLEVIKQFRHPKYNTSTLHHDIMLLKLKEKASLTLAVGTLPFPSQFNFVPPGRMCRIAGWGRTGVLKPGSDTLQEVKLRLMDPQACSHFRDFDHNLQLCIGNPRKTKSAFKGDSGGPVLCAGVAQGIVSYGRSDAKPPRVVTRISHYRPWINQILQAN | 269 M⁻¹ s⁻¹ |  | 
19 | chymase C22S (enzyme, For all chymase variants: mutation names are in chymotrypsin numbering) IIGGTESKPHSRPYMAYLEIVTSNGPSKFCGGFLIRRNFVLTAAHCAGRSITVTLGAHNITEEEDTWQKLEVIKQFRHPKYNTSTLHHDIMLLKLKEKASLTLAVGTLPFPSQFNFVPPGRMCRVAGWGRTGVLKPGSDTLQEVKLRLMDPQACSHFRDFDHNLQLCVGNPRKTKSAFKGDSGGPLLCAGVAQGIVSYGRSDAKPPAVFTRISHYRPWINQILQAN | 31200 M⁻¹ s⁻¹ | 0.265 µM | fB Cleavage, 64% A2M-depl plasma EC50 (Human Factor B): 1520 nM; fB Cleavage, 64% plasma EC50 (Human Factor B): 7.88 µM; fB Cleavage, 80% plasma EC50 (Human Factor B): 10.2 µM
